Measured values: article PMC3718333

Molecular target: recombinant MHJ_0125 (polyhistidine fusion of the M42 glutamyl aminopeptidase MHJ_0125 of Mycoplasma hyopneumoniae) (Mycoplasma hyopneumoniae (strain J))
Test: SEC; 10 µg purified rMHJ_0125 on Superdex 200 (3.2 x 300 mm), 20 mM Tris-HCl pH 8.0, 50 µl/min; markers blue dextran, apoferritin, myoglobin

In the case of “recombinant MHJ_0125 (polyhistidine fusion of the M42 glutamyl aminopeptidase MHJ_0125 of Mycoplasma hyopneumoniae) (enzyme)”, the stoichiometry N is reported as 12.
